Article PMC4869107, “In vitro flow cytometry-based screening platform for cellulase engineering” (Scientific Reports, 2016)

system: T1, Cc1cc(=O)oc2cc(O[C@@H]3O[C@H](CO)[C@@H](O[C@@H]4O[C@H](CO)[C@@H](O)[C@H](O)[C@H]4O)[C@H](O)[C@H]3O)ccc12; experiment: purified protein; type: biochemical, uncultured bacterium; conditions: potassium phosphate pH 7.2, 30 °C (general assay; kinetics by cited protocol)
T1 construct: 604 residues, ~69 kDa; expressed in E. coli BL21 Gold (DE3)

| Substance | Km | kcat | kcat/Km |
| --- | --- | --- | --- |
| CelA2 (CelA2-WT) (uncultured bacterium) | 48.37 (±2.43) μM | 0.00183 ± 0.00035 s⁻¹ | 33.3 M⁻¹ s⁻¹ |
| CelA2 (CelA2-WT) (uncultured bacterium; H288F) | 8.95 (±1.62) μM | 0.00833 ± 0.000367 s⁻¹ | 933 M⁻¹ s⁻¹ |
| CelA2 (CelA2-WT) (uncultured bacterium; H288F/N273D/N468S) | 9.66 (±1.19) μM | 0.0253 ± 0.000767 s⁻¹ | 2620 M⁻¹ s⁻¹ |
